For assay [1], the target named is human CD19 expressed on the cell surface (native format) (human) (UniProt P15391). The experiment in a line: apparent KD from bi-specific antibody titration flow cytometry on Raji cells.
Assay [2] has the same target. The experiment in a line: bi-specific antibody titration flow cytometry on Raji cells.
For assay [3] the target is unchanged. The experiment in a line: flow cytometry, human PBMC gated on CD20+CD3- B cells, FITC anti-His detection.

Sequence of human CD19 expressed on the cell surface (native format) (human) (P15391 20-488 limits assumed): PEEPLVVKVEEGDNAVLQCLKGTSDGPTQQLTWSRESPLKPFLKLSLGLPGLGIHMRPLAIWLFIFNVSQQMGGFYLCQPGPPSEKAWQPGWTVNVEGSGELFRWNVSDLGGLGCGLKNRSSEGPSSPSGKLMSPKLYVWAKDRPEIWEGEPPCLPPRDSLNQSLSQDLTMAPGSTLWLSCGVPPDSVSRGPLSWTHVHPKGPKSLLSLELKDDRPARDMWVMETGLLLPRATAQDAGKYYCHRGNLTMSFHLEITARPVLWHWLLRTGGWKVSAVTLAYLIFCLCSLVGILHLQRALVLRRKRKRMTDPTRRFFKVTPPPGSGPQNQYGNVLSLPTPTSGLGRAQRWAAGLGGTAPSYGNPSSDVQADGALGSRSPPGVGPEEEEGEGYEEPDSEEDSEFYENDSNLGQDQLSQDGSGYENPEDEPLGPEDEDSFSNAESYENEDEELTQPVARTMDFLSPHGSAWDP

B1: CD19×CD3 bi-specific antibody based on variant clone 5-3 (bispecific antibody, part only; not given: anti-CD3 scFv, linker, His tag, not shown: another chain or arm of the molecule; small tags and cut ends)
scFv: LPVLTQPPSVSVAPGKTARITCGGNNIGSKSVHWYQQKPGQAPVLVVYDDSNRPSGIPERFSGSNSGNTATLTISRVEAGDEADYYCQVWDSSSEYVVFGGGTKLTVLGSRGGGGSGGGGSGGGGSLEMAEVQLVQSGAEVKKPGESLKISCKGSGYSFTSYWIGWVRQMPGKGLEWMGIIYPGDSDTRYSPSFQGQVTISADKSISTAYLQWSSLKASDTAMYYCARQVWGWQGGMYPRSNWWYNMDSWGQGTLVTVSS
B1: in assay [1], the Kd is 1.6 nM. This molecule also showed an EC50 in assay [2] of 0.081 µg/mL.

B2: CD19×CD3 bi-specific antibody based on clone 6 (bispecific antibody, part only; not given: anti-CD3 scFv arm, linker, His tag, not shown: another chain or arm of the molecule; small tags and cut ends)
scFv: QAVLTQPPSVSEAPRQRVTISCSGSSSNVGNNAVNWYQQVPGKAPKLLIYYDDLLSSGVSDRFSGSKSGTSASLAISGLQSEDEADYYCAAWDDSLNGPVFGGGTKLTVLGSRGGGGSGGGGSGGGGSLEMAEVQLVQSGAEVKKPGESLKISCKGSGYSFTSYWIGWVRQMPGKGLEWMGIIYPGDSDTRYSPSFQGQVTISADKSISTAYLQWSSLKASDTAMYYCARWSSTWDSMYMDYWGQGTLVTVSS
Take B2: the Kd in assay [1] was found to be 4.1 nM. This molecule displayed an EC50 in assay [2] of 0.214 µg/mL. Moreover, the Mean Fluorescence Intensity (MFI) in FITC channel in assay [3] stood at 2200 MFI.

B3: CD19×CD3 bi-specific antibody based on clone 7 (bispecific antibody, part only; not given: anti-CD3 scFv, linker, His tag, not shown: another chain or arm of the molecule; small tags and cut ends)
scFv: QPVLTQPPSVSVAPGKTARITCGGNNIGSESVHWYQQKPGQAPMVVIYYDSNRPSGIPERFSGSNSGNTATLTVSRVEAEDEADYYCQVWNSSSDHRGVFGGGTKLTVLGSRGGGGSGGGGSGGGGSLEMAEVQLVQSGAEVKKPGESLRISCKGSGYSFTSYWIGWVRQMPGKGLEWMGIIYPGDSDTRYSPSFQGQVTISADKSISTAYLQWSSLKASDTAMYYCARVTYSMDSYYFDSWGQGTLVTVSS
Molecule B3 displayed a Mean Fluorescence Intensity (MFI) in FITC channel in assay [3] of 1880 MFI.
